Experimental data reported in publication PMC9076019, “HSP90 N‐terminal inhibitors target oncoprotein MORC2 for autophagic degradation and suppress MORC2‐driven breast cancer progression” (Clinical and Translational Medicine, 2022).

B1: Full-length Flag-MORC2 (natural protein, human, UniProt Q9Y6X9-1 1-1032, looked up)
chain: MAFTNYSSLNRAQLTFEYLHTNSTTHEFLFGALAELVDNARDADATRIDIYAERREDLRGGFMLCFLDDGAGMDPSDAASVIQFGKSAKRTPESTQIGQYGNGLKSGSMRIGKDFILFTKKEDTMTCLFLSRTFHEEEGIDEVIVPLPTWNARTREPVTDNVEKFAIETELIYKYSPFRTEEEVMTQFMKIPGDSGTLVIIFNLKLMDNGEPELDIISNPRDIQMAETSPEGTKPERRSFRAYAAVLYIDPRMRIFIHGHKVQTKRLSCCLYKPRMYKYTSSRFKTRAEQEVKKAEHVARIAEEKAREAESKARTLEVRLGGDLTRDSRVMLRQVQNRAITLRREADVKKRIKEAKQRALKEPKELNFVFGVNIEHRDLDGMFIYNCSRLIKMYEKVGPQLEGGMACGGVVGVVDVPYLVLEPTHNKQDFADAKEYRHLLRAMGEHLAQYWKDIAIAQRGIIKFWDEFGYLSANWNQPPSSELRYKRRRAMEIPTTIQCDLCLKWRTLPFQLSSVEKDYPDTWVCSMNPDPEQDRCEASEQKQKVPLGTFRKDMKTQEEKQKQLTEKIRQQQEKLEALQKTTPIRSQADLKKLPLEVTTRPSTEEPVRRPQRPRSPPLPAVIRNAPSRPPSLPTPRPASQPRKAPVISSTPKLPALAAREEASTSRLLQPPEAPRKPANTLVKTASRPAPLVQQLSPSLLPNSKSPREVPSPKVIKTPVVKKTESPIKLSPATPSRKRSVAVSDEEEVEEEAERRKERCKRGRFVVKEEKKDSNELSDSAGEEDSADLKRAQKDKGLHVEVRVNREWYTGRVTAVEVGKHVVRWKVKFDYVPTDTTPRDRWVEKGSEDVRLMKPPSPEHQSLDTQQEGGEEEVGPVAQQAIAVAEPSTSECLRIEPDTTALSTNHETIDLLVQILRNCLRYFLPPSFPISKKQLSAMNSDELISFPLKEYFKQYEVGLQNLCNSYQSRADSRAKASEESLRTSERKLRETEEKLQKLRTNIVALLQKVQEDIDINTDDELDAYIEDLITKGD
notes: MORC2, human, full length (residues 1-1032); source: HEK293T, transfected, in cytosolic and nuclear fractions
B2: MORC family CW-type zinc finger 2 (MORC2) (natural protein, human (endogenous in MCF-7 and T47D), UniProt Q9Y6X9 1-1032, looked up)
chain: B1 chain
notes: MORC2, human, endogenous in breast cancer cells; source: endogenous, MCF-7 and T47D lysates

What was measured:
[1] = biological target: the molecule itself; experiment: cross-linking; nuclear fraction of HEK293T cells transfected with Flag-MORC2 (48 h); chemical cross-linking with 0.05% glutaraldehyde on ice for 5 min; immunoblotting
[2] = biological target: the molecule itself; experiment: cross-linking; endogenous MORC2; total lysates (NP40 buffer) of MCF-7 and T47D cells treated with DMSO, 1 μM 17-AAG, AUY922, STA-9090 or 10 μM NB for 12 h; 0.05% glutaraldehyde on ice for 5 min; immunoblotting

Protein | stoichiometry N [1] | stoichiometry N [2]
B1 | 2 | 
B2 |  | 2
